The values below come from publication PMC11184549.

In experiment [1] the target is FITC-labeled DENV2 NS5 NLS_(C-term) peptide (dengue virus serotype 2 (DENV2)). The experiment in a line: fluorescence polarisation. Background: Fluorescence polarisation rises when a labelled molecule tumbles more slowly, as on binding a larger partner.
Experiment [2] addresses FITC-labeled DENV3 NS5 NLS_(C-term) peptide (dengue virus serotype 3 (DENV3)). The experiment in a line: fluorescence polarisation.

Chain of human IMPα7 lacking the IMPβ-binding domain (IMPαΔIBB) (O60684 73-536, stated change not applied): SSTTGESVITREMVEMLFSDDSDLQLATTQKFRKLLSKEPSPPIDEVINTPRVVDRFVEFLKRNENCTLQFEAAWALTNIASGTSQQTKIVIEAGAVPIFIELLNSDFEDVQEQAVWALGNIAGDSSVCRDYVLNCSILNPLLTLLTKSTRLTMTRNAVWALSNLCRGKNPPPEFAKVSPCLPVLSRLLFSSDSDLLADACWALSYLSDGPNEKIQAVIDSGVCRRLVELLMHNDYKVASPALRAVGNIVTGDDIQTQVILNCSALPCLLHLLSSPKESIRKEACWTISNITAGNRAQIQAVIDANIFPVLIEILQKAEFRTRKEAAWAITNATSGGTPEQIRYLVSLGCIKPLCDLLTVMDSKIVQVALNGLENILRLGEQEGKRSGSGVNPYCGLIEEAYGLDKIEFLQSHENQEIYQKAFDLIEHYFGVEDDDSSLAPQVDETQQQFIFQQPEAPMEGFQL
Chain of human IMPα3 lacking the IMPβ-binding domain (IMPαΔIBB) (O00629 64-521, stated change not applied): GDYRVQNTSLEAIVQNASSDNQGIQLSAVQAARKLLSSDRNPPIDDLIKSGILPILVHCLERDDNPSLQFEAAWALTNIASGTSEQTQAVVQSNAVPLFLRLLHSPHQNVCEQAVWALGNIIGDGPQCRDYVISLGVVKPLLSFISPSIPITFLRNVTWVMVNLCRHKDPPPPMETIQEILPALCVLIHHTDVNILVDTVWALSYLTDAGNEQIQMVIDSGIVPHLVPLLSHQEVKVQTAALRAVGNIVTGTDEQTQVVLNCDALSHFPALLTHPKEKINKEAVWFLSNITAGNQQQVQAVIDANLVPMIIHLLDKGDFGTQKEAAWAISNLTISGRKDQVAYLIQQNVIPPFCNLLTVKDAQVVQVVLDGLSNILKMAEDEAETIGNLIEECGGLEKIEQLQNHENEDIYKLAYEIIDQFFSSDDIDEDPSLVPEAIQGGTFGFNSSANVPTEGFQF

Usually Kd stands for the equilibrium constant for the complex coming apart. “human IMPα1 lacking the IMPβ-binding domain (IMPαΔIBB) (from UniProt P52292 70-529) (domain or fragment)”: the Kd in experiment [1] turned out to be 90 nM; in experiment [2], 140 nM.
On the same counts, the results for “human IMPα3 lacking the IMPβ-binding domain (IMPαΔIBB) (from UniProt O00629 64-521) (domain or fragment)” are 80 nM and 150 nM.
Consider “human IMPα7 lacking the IMPβ-binding domain (IMPαΔIBB) (from UniProt O60684 73-536) (domain or fragment)”, for which the Kd in experiment [1] was 180 nM; in experiment [2], 190 nM.
